This is an account of results in PMC13543948, “SNX-BAR proteins 5 and 6 are required for NCOA7-AS antiviral activity against influenza A virus” (The Journal of Biological Chemistry, 2026).

Positions count from the first letter of the chain named. Where no end group is shown, it is not given here.

Sequences and labels used below:
B1: MBP-tagged PX domain of SNX5 (MBP-PX-SNX5) (domain or fragment, human, UniProt Q9Y5X3 25-172, looked up)
chain: LNVDPSLQIDIPDALSERDKVKFTVHTKTTLPTFQSPEFSVTRQHEDFVWLHDTLIETTDYAGLIIPPAPTKPDFDGPREKMQKLGEGEGSMTKEEFAKMKQELEAEYLAVFKKTVSSHEVFLQRLSSHPVLSKDRNFHVFLEYDQDL
notes: Phox homology (PX) domain of human sorting nexin 5; Cloned in pMAL-p4X; also called PX-SNX5-WT; source: E. coli BL21 (DE3), purified (amylose resin, SEC)
B2: FITC conjugated NCOA7-AS peptide (NCOA7-AS-NTD-FITC) (peptide)
peptide: RLPLDIQIFYCARPDEEPFVKIITVEEAKRR
modifications: also: FITC conjugated, position not given here
notes: numbers count on: NCOA7-AS; Printed as NH2-...-COOH; Limits worked out from Tyr14, Gln11, Glu21 and Val24 as numbered in the structure; also called fluorescently labeled NCOA7-AS-NTD
B3: GST-tagged NCOA7-AS N-terminal domain (NCOA7-AS-NTD-GST) (domain or fragment, human, UniProt Q8NI08-5 1-53, looked up)
chain: MRGQRLPLDIQIFYCARPDEEPFVKIITVEEAKRRKSTCSYYEDEDEEVLPVL
notes: numbers count on: NCOA7-AS; source: E. coli BL21 (DE3), purified (Ni-NTA, SEC); not shown: GST, C-terminal, kept

Settings in all cases: both partners purified
Test [1] addresses T1, GST-tagged NCOA7-AS (NCOA7-AS-WT-GST) (human, UniProt Q8NI08-5 1-219).
T1 construct: numbers count on: NCOA7-AS; Modified pET-30: MCS, TEV cleavage site, GST, His6; no cleavage is described for the GST-tagged proteins; also called GST-tagged-NCOA7-AS-WT; source: E. coli BL21 (DE3), purified (Ni-NTA, SEC); not shown: GST, C-terminal, kept
T1 sequence (looked up): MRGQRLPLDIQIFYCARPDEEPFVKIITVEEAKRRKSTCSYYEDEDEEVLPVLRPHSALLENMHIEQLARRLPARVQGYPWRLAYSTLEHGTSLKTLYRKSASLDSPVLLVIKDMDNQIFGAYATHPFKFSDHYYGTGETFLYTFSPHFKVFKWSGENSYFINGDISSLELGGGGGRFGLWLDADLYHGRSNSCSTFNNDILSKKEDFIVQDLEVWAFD
The experiment in a line: pull-down; GST-tagged proteins (14-35 μg) on glutathione agarose beads, 85 μg MBP-tagged protein, 2 h at 4 °C; 50 mM Tris-HCl pH 8, 600 mM NaCl, 5 mM β-mercaptoethanol, 10% glycerol; Western blot (GST, MBP). Background: Immunoblotting shows a protein as a band on a membrane.

Test [2] addresses T2, GST-tagged NCOA7-AS-Y14F (human, UniProt Q8NI08-5 1-219, Y14F).
T2 construct: source: E. coli BL21 (DE3), purified (Ni-NTA, SEC); not shown: GST, C-terminal, kept
T2 sequence (looked up): T1 sequence (looked up) with Y14F
The description is as above.

For test [3], the target named is B1. Kind of test: microfluidic diffusional sizing; 57 nM FITC peptide tracked, MBP-PX-SNX5 proteins titrated 0.38-250 μM in PBS-10% glycerol; Fluidity One-W; hydrodynamic radius; one-site specific binding fit; apparent Kd.
Test [4] concerns the target T3, MBP-tagged PX domain of SNX5 with F136A (MBP-PX-SNX5-F136A) (human, UniProt Q9Y5X3 25-172, F136A).
T3 construct: Phox homology (PX) domain of human sorting nexin 5; pMAL-PX-SNX5-F136A by site-directed mutagenesis; also called F136A mutant; source: E. coli BL21 (DE3), purified (amylose resin, SEC)
T3 sequence (looked up): B1 chain with F112A
The test is described as above.

For test [5], the target named is B1. Kind of test: pull-down; GST-tagged proteins (14-35 μg) on glutathione agarose beads, 85 μg MBP-tagged protein, 2 h at 4 °C; 50 mM Tris-HCl pH 8, 600 mM NaCl, 5 mM β-mercaptoethanol, 10% glycerol; Western blot (GST, MBP).

Turning to B1, the binding result in test [1] and in test [2] was “binds” in each case.

Turning to B2, the Kd is 1.4 µM in test [3] and 13.4 µM in test [4].

Regarding B3, the binding result in test [5] is given as “binds”.
